Experimental data from patent US9827288B2, “Method for treating a refractory or relapsed lung cancer” (MYCOMAGIC BIOTECHNOLOGY CO., LTD., priority 2015, dated 2017).

Experiments:
[1] = tested on: LLC1 cells; assay: Tumor growth in LLC1 allograft mice; assay type: in vivo; details: vs PBS
Experimental: Male C57BL/6 (6-8 weeks of age) mice were subcutaneously inoculated with LLC1 cells and randomly divided into two groups. Seven days after implantation, the mice were treated with GMI (5 mg/kg) via i.p. injections at intervals of 4 days. The control group received an equal volume of sterile PBS.
The mice will be weighed and randomly distributed across the different experimental groups (n=5). At day 0, approximately 2×10^5 lung cancer cells suspended in 100 μl serum free DMEM will be subcutaneously (s.c.) implanted into the right flank of all mice for easy observed detection. The mice were sacrificed on the 25th day and the tumors were then excised. […] Tumor size was measured (FIG. 1A) for each mouse using a set of digital calipers at 4 days, and the tumor volume was calculated by the formula L1×L2×H, where L1 is long diameter, L2 is the short diameter and H is the height of the tumor. Representative images of the tumors on the 25th day (FIG. 1B).
We further examined the effect of rLZ-8 on mice with LLC1-allograft in vivo. LLC1 cells were subcutaneously injected into male C57BL6 mice, and the tumor growth rate was assessed over 17 days.

[2] = target: T1, EGFR (Homo sapiens, UniProt P00533); assay: Co-localization with EGFR by fluorescence microscopy; assay type: cell-based; parameters: endogenous in cells; host or cells: CL1-5 and H226 cells; details: H226 cells
Experimental: (§1) Science the downregulation of EGFR by rLZ-8 and GMI may involve an intracellular pathway similar to that induced by EGF-mediated EGFR endocytosis and degradation, we hypothesized that rLZ-8 and GMI could interact with EGFR. The co-locolization of rLZ-8/GMI and EGFR were determined by fluorescence microscopy. […] To further examine the association of rLZ-8 and EGFR, immunoprecipitation assay was performed by anti-EGFR and anti-his-tag (for detecting rLZ-8) antibody.

[3] = tested on: EGFR; assay: Western blot of EGFR level in H1975 cells; assay type: cell-based, human
Experimental: Knocking down of EGFR by EGFR siRNA activated activity of caspase3/7, resulting in apoptosis in gefitinib-resistant H1975 cells (Chen G et al., BMC Med. 2012; 10:28). To investigate the apoptosis, human H1975 cells were seed in 60-mm plat-dish and incubated with rLZ-8 (5 μg/ml) and GMI (10 μg/ml) for 48 hours and 72 hours, respectively.

[4] = target: T1, EGFR; assay: Western blotting to detect expression of EGFR in CL1-5 and H226 cells; assay type: cell-based; parameters: endogenous in cells; host or cells: CL1-5 and H226 cells; details: 5 μg/ml for CL1-5 and 10 μg/ml for H226, 0-12 h
Experimental: CL1-5 and H226 cells were incubated with rLZ-8 and GMI (5 μg/ml for CL1-5 and 10 μg/ml for H226) for 0-12 h followed by western blotting to detect expression of EGFR. […] The regulatory mechanisms of ligand-induced EGFR degradation dependent on endocytosis (Hicke L., FASEB J. 1997; 11:1215-26.). To investigate whether rLZ-8-induced EGFR degradation by inducing endocytosis, we performed depletion of clathrin heavy chain experiments in NSCLC cells. Using clathrin heavy chain shRNAs such as #2755 (sh-S1), #2757 (sh-S2) and #7981 (sh-S3), we confirm the efficacy of clathrin shRNAs, and we found (via Western blot analysis) that clathrin knockdown leads to a reduction in the overall protein levels of clathrin in CL1-5 and H226 cells (FIG. 4B). Next, we examined whether the rLZ-8-induced EGFR degradation dependent on clathrin-mediated endocytosis in NSCLC cells.

[5] = target: T1, EGFR; assay: Immunoprecipitation assay with anti-EGFR and anti-his-tag antibody; assay type: binding; parameters: After treatment of rLZ-8 in A549; endogenous in cells; host or cells: A549 cells; details: A549 cells treated with rLZ-8
Experimental: as §1

Molecule | tumor volume ([1]; LLC1-bearing male C57BL6 mice, rLZ-8 7.5 mg/kg, over 17 days) | tumor weight ([1]; LLC1-bearing male C57BL6 mice, rLZ-8 7.5 mg/kg) | co-localization with EGFR [2] | EGFR level ([3]; rLZ-8 5 μg/ml, 48 hours) | EGFR protein levels [4] | association with EGFR (immunoprecipitation) [5] | tumor volume ([1]; LLC1-bearing male C57BL/6 mice, GMI 5 mg/kg i.p. at intervals of 4 days from day 7, to 25th day) | EGFR level ([3]; GMI 10 μg/ml, 72 hours)
rLZ-8: his-tagged recombinant fungal immunomodulatory protein LZ-8 from Ganoderma lucidum (SEQ ID NO:5) (protein, listed as Ganoderma lucidum, His tag) MSDTALIFRLAWDVKKLSFDYTPNWGRGNPNNFIDTVTTFPKVLTDKAYTYRVAVSGRNLGVKPSYAVESDGSQKVNFLEYNSGYGIADTNTIQVFVVDPDTNNDFIIAQWN | significantly decreases tumor volume | significantly decreases | mainly co-localized on the plasma membrane and formed the punctuate intracellular clusters in the cytoplasm | induced downregulation of EGFR level | significantly suppressed the EGFR protein levels | present in the immunoprecipitants obtained by the anti-EGFR antibody | – | –
GMI: recombinant immunomodulatory protein derived from Ganoderma microsporum, manufactured by Mycomagic Biotechnology per U.S. Pat. No. 7,601,808 (protein, Ganoderma microsporum (GMI) or a recombinant thereof (reGMI)) EAEAEFMSDTALIFTLAWNVKQLAFDYTPNWGRGRPSSFIDTVTFPTVLTDKAYTYRVVVSGKDLGVRPSYAVESDGSQKINFLEYNSGYGIADTNTIQVYVIDPDTGNNFIVAQWNYLEQKLISEEDLNSAVDHHHHHH | – | – | – | – | significantly suppressed the EGFR protein levels | – | significantly decreases tumor volume | induced downregulation of EGFR level
